Assay results from US20080279850A1.

Experiments:
CD37 (human) [1] = molecular target: T1, CD37 (human) (UniProt P11049)
T1 sequence: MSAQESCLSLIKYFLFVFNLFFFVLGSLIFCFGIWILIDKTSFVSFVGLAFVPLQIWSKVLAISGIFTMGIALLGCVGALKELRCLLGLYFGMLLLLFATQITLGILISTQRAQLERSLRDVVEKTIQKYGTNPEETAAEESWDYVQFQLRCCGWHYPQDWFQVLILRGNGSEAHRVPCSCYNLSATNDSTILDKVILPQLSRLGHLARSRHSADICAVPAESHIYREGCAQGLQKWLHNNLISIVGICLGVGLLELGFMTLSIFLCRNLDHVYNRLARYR

CD37 (human) [2] = molecular target: T1, CD37 (human); remark: listed apart in the source

Annexin V Positive, Bjab cells, 20 µg/mL SMIP with goat anti-human IgG crosslinking (Annexin V Positive) (CD37 (human) [1])	Annexin V-PI staining of Ramos cells after 24 hours (CD37 (human) [2]) [%]	Substance
30.6		TRU-016 [G28-1 scFv VH11S (SSC-P)H WCH2 WCH3] (Fc fusion)
	32.8	TRU-016, protein A purified (unfractionated) (Fc fusion)
